The text below walks through data of patent US20060040277A1 (published 2006).

The test addresses T1, GST-ATIPmouse-short fusion protein (from pGEX-4T1-GST-ATIPmouse-short), on glutathione-agarose beads (mouse, UniProt Q5HZI1 937-1053).
T1 construct: also called GA-GST-ATIPmouse-short; GST-ATIPc; not shown: glutathione S-transferase (GST) encoded by pGEX-4T-1 (Pharmacia)
T1 sequence: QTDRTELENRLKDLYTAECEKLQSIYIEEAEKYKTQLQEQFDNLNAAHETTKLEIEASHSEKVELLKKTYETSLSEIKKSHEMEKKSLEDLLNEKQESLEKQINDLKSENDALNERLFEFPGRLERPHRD
The test can be described thus: GST pull-down, SDS-PAGE and immunoblot with anti-MBP. In general terms: A western blot detects proteins with antibodies after separation by electrophoresis.

B1: MBP-AT1: fusion of Maltose Binding Protein and the C-terminal end of the human AT1 receptor (Leu 297-Glu 359) (receptor, UniProt P30556 297-359, looked up, not shown: large carriers)
chain: LNPLFYGFLGKKFKRYFLQLLKYIPPKAKSHSNLSTKMSTLSYRPSDNVSSSTKKPAPCFEVE
notes: range 297-359
Consider B1, for which the binding result is on record as “no binding”.
